From the supplement of paper PMC10567573 come the findings set out here.

A short description of the data set: protein stability index of a GFP-peptide fusion (GPS, HEK-293T) (PSI 1-6); higher = more stable. As to conditions: c terminus: a fixed tail appended.

± gives the standard deviation.
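Note: 24-mer peptide tiles fused after GFP, lentivirally expressed, FACS-sorted into six equal bins by GFP/DsRed ratio, decoded by Illumina sequencing, PSI is the read-weighted mean bin number.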

For FLGLFFIVRFLESNWFVWVTQMNH [FADS1], the protein stability index (treatment: DMSO) was 3.69 ± 0.72 and the protein stability index (treatment: MLN4924 1 uM, 8 h) was 3.25 ± 0.32. Consider SKNDNGKPDSVGLPPCAVRNLQDL [PCMTD1], for which the protein stability index (treatment: DMSO) came to 4.85 ± 0.44 and the protein stability index (treatment: MLN4924 1 uM, 8 h) turned out to be 4.58 ± 0.35. Regarding YLDPSVLSGVSCFVMFLCLADYLV [ARL6IP1], the protein stability index is 2.98 ± 0.21 (treatment: DMSO) and 2.97 ± 0.39 (treatment: MLN4924 1 uM, 8 h).

Turning to HSIALSTFASLIGPFGGFFASGFK [CDS1], the protein stability index (treatment: DMSO) amounted to 2.57 ± 0.61 and the protein stability index (treatment: MLN4924 1 uM, 8 h) came to 2.64 ± 0.69. MGTEPAPSAPEALHSLPGVSLSLE [TBX6]: the protein stability index reads like this: (treatment: DMSO) 4.28 ± 0.22; (treatment: MLN4924 1 uM, 8 h) 4.41 ± 0.24.

PRYREDPCKQCKKKYVKGDVSLCR [FBXO34]: the protein stability index is, setting by setting: (treatment: DMSO) 2.99 ± 0.45; (treatment: MLN4924 1 uM, 8 h) 3.35 ± 0.24. The sequence FQNAERAFKAAALIQRWYRRYVAR [PPEF2] registered a protein stability index (treatment: MLN4924 1 uM, 8 h) of 5.54 ± 0.23.

With KKFLTLGSKFRYSGRTQAQTRRAS [EPB41L3], the protein stability index is 3.27 ± 0.61 (treatment: DMSO) and 3.49 ± 0.41 (treatment: MLN4924 1 uM, 8 h). As for DSGQYWPSVYHAMPSPCSCMSFNP [WDFY2], the protein stability index reads like this: (treatment: DMSO) 2.37 ± 0.19; (treatment: MLN4924 1 uM, 8 h) 2.31 ± 0.44. The sequence ALKEELLFMKKNHEEEVKGLQAQI [KRT18] yielded a protein stability index (treatment: DMSO) of 3.79 ± 0.36 and a protein stability index (treatment: MLN4924 1 uM, 8 h) of 3.95 ± 0.28. For the sequence VSEAGGSGRLSASWEPLSGPSTPS [FCHO1], the protein stability index reads like this: (treatment: DMSO) 4.54 ± 0.17; (treatment: MLN4924 1 uM, 8 h) 4.74 ± 0.2. The matching figures for VERKRLRNRLAATKCRKRKLERIA [JUNB]: 4.07 ± 0.42 and 4.2 ± 0.34. In the case of EEEGGEEEEEAAMYEEEMEREEIT [FAM50A], the protein stability index runs as follows: (treatment: DMSO) 5.6 ± 0.13; (treatment: MLN4924 1 uM, 8 h) 5.71 ± 0.11. RQVLCEKCKSTLSPPEASPGPPAA [PWWP2B]: the protein stability index runs as follows: (treatment: DMSO) 4.88 ± 0.14; (treatment: MLN4924 1 uM, 8 h) 4.83 ± 0.37. ARLLGALAARSGAAYGPGARGEDR [TSPAN10] showed a protein stability index (treatment: DMSO) of 3.89 ± 0.73 and a protein stability index (treatment: MLN4924 1 uM, 8 h) of 3.91 ± 0.18. The matching figures for DNDRTTPSDLDSTGNSLNEPEEPS [DLC1]: 5.61 ± 0.21 and 5.63 ± 0.11. Take RGTHLWEFIRDILIHPELNEGLMK [ELF3]: the protein stability index (treatment: DMSO) turned out to be 2.54 ± 0.59 and the protein stability index (treatment: MLN4924 1 uM, 8 h) amounted to 2.31 ± 0.42. In the case of SLSFEDFLDLLSVFSDTATPDIKS [CIB1], the protein stability index runs as follows: (treatment: DMSO) 2.26 ± 0.35; (treatment: MLN4924 1 uM, 8 h) 2.29 ± 0.33. For EDQTEYLEERRVKEVVKKHSQFIG [HSP90AB1] the same measures were 4.11 ± 0.16 and 4.93 ± 0.17. Regarding KQPPLSTVPADGYILELDDGNGGQ [TRIM9], the protein stability index stood at 5.07 ± 0.12 (treatment: DMSO) and 5.07 ± 0.2 (treatment: MLN4924 1 uM, 8 h). With NLLISLTFLTVTDLIGLPWVCFIY [SLC2A12], the protein stability index by setting is: (treatment: DMSO) 3.36 ± 0.45; (treatment: MLN4924 1 uM, 8 h) 3.19 ± 0.63. For GAFDSQSTVKDCATIFALSTMTSS [ATL3], the protein stability index is, setting by setting: (treatment: DMSO) 3.01 ± 0.25; (treatment: MLN4924 1 uM, 8 h) 3.19 ± 0.27. For the sequence TYVSPPGNEEEESKIFTTLDPASL [DDIT3], the protein stability index by setting is: (treatment: DMSO) 4.91 ± 0.26; (treatment: MLN4924 1 uM, 8 h) 5.08 ± 0.065. The matching figures for EIKLVSDVTADSKVLEALKLKGAE [PLD5]: 4.31 ± 0.41 and 4.34 ± 0.51. For TADHRIYSYVVSRPQPRGLLGWGY [FAF2], the protein stability index runs as follows: (treatment: DMSO) 2.16 ± 0.37; (treatment: MLN4924 1 uM, 8 h) 2.21 ± 0.22. PQQYMAFLPHHIMVKIFRLLPTKS [FBXO34]: the protein stability index runs as follows: (treatment: DMSO) 2.23 ± 0.38; (treatment: MLN4924 1 uM, 8 h) 2.07 ± 0.39. Regarding LNYLVDPVTICCGHSFCRPCLCLS [TRIM43], the protein stability index is 2.26 ± 0.34 (treatment: DMSO) and 2.42 ± 0.23 (treatment: MLN4924 1 uM, 8 h).

Consider GSENRNHRLLNMARNNNDPGRLTE [RNF180], for which the protein stability index runs as follows: (treatment: DMSO) 4.08 ± 0.22; (treatment: MLN4924 1 uM, 8 h) 4.26 ± 0.24. For the sequence NGVTQKASAPTYPSLYSSYHQGCL [NANOGP8], the protein stability index reads like this: (treatment: DMSO) 2.75 ± 0.11; (treatment: MLN4924 1 uM, 8 h) 2.93 ± 0.34. Regarding NFQFLPQVNGHPDPFDEIILFSLP [PTPN9], the protein stability index runs as follows: (treatment: DMSO) 2.4 ± 0.29; (treatment: MLN4924 1 uM, 8 h) 2.37 ± 0.19. As to CLTQSTAAPAVRASSSPVTLRQKT [SLA], the protein stability index by setting is: (treatment: DMSO) 4.02 ± 0.35; (treatment: MLN4924 1 uM, 8 h) 4.35 ± 0.052. As to EGYTPLMEAAREGHEEMVALLLGQ [ANKRD17], the protein stability index stood at 4.07 ± 0.32 (treatment: DMSO) and 4.07 ± 0.22 (treatment: MLN4924 1 uM, 8 h).

Sequence KLLQGEEERLKLSPSPSSRVTVSR [LMNB1] gave a protein stability index (treatment: DMSO) of 4.13 ± 0.23 and a protein stability index (treatment: MLN4924 1 uM, 8 h) of 4.13 ± 0.3.

Sequence KLATQHKQLISQTKKKQWCYNCEE [ZMYND11] yielded a protein stability index (treatment: DMSO) of 3.48 ± 0.4 and a protein stability index (treatment: MLN4924 1 uM, 8 h) of 3.8 ± 0.23. The matching figures for SDCEEEEEEEEEEGSGHSTGEDSA [WEE1]: 5.57 ± 0.2 and 5.49 ± 0.33. As to LLQTQHALGDAFADLSQKSPELQE [ARFIP2], the protein stability index runs as follows: (treatment: DMSO) 4.7 ± 0.22; (treatment: MLN4924 1 uM, 8 h) 4.77 ± 0.21.

For the sequence QFLGFSWIFVNLTVRFCILGKESF [HACD3], the protein stability index was found to be 3.49 ± 0.52 (treatment: DMSO) and 3.25 ± 0.16 (treatment: MLN4924 1 uM, 8 h).
